Reference: US20200190143A1
No end group written: not given here.

Experiments:
[1] = molecular target: fibroblast growth factor receptor on fibroblasts; assay: binding to fibroblasts as in Example 3-1; peptide density 10 peptides/µm^2
[2] = molecular target: fibroblast growth factor receptor on fibroblasts; assay: binding to fibroblasts as in Example 3-1; peptide density 0.05 peptides/µm^2
[3] = molecular target: melanocortin receptor on melanocytes; assay: interference with alpha-MSH binding to melanocytes as in Example 4-1; peptide density 10 peptides/µm^2
[4] = molecular target: melanocortin receptor on melanocytes; assay: interference with alpha-MSH binding to melanocytes as in Example 4-1; peptide density 0.1 peptides/µm^2
[5] = molecular target: integrin receptor (beta-1 family) on keratinocytes; assay: flow cytometry (FACS), fluorescence immunoassay, on keratinocytes
[6] = molecular target: melanocortin receptor on melanocytes; assay: interference with alpha-MSH binding to melanocytes as in Example 4-1; peptide density 0.05 peptides/µm^2
[7] = molecular target: melanocortin receptor on melanocytes; assay: flow cytometry (FACS), fluorescence immunoassay, on melanocytes
[8] = molecular target: melanocortin receptor on melanocytes; assay: binding of alpha-MSH to melanocytes after treatment with 10 µM capsule 2; competitor alpha-MSH
[9] = molecular target: melanocortin receptor on melanocytes; assay: interference with alpha-MSH binding to melanocytes as in Example 4-1; peptide density 2 peptides/µm^2; reference set to 10
[10] = molecular target: melanocortin receptor on melanocytes; assay: interference with alpha-MSH binding to melanocytes as in Example 4-1; peptide density 7 peptides/µm^2
[11] = molecular target: fibroblast growth factor receptor on fibroblasts; assay: capsule and fibroblasts cultured together at 4° C. for 1 hour
[12] = molecular target: fibroblast growth factor receptor on fibroblasts; assay: flow cytometry (FACS), fluorescence immunoassay, on fibroblasts
[13] = molecular target: fibroblast growth factor receptor on fibroblasts; assay: binding to fibroblasts as in Example 3-1; peptide density 2 peptides/µm^2; reference set to 10
[14] = molecular target: fibroblast growth factor receptor on fibroblasts; assay: binding to fibroblasts as in Example 3-1; peptide density 10.5 peptides/µm^2
[15] = molecular target: fibroblast growth factor receptor on fibroblasts; assay: binding to fibroblasts as in Example 3-1; peptide density 0.1 peptides/µm^2
[16] = molecular target: melanocortin receptor on melanocytes; assay: interference with alpha-MSH binding to melanocytes as in Example 4-1; peptide density 10.5 peptides/µm^2
[17] = molecular target: fibroblast growth factor receptor on fibroblasts; assay: binding to fibroblasts as in Example 3-1; peptide density 7 peptides/µm^2

B1: capsule 1-5 (peptide)
peptide: AKST
modifications: not fully specified (N-terminus); printed as Ala-Lys-Ser-Thr; also: N-terminus amide-linked to microcapsule surface carboxyl (EDAC/NHS)
- binding affinity to fibroblasts, relative (capsule 1-3 = 10) (relative to capsule 1-3 = 10) [1]: 7.5

B2: capsule 1-1 (peptide)
peptide: AKST
modifications: not fully specified (N-terminus); printed as Ala-Lys-Ser-Thr; also: N-terminus amide-linked to microcapsule surface carboxyl (EDAC/NHS)
- binding affinity to fibroblasts, relative (capsule 1-3 = 10) (relative to capsule 1-3 = 10) [2]: 2

B3: capsule 2-5 (peptide)
peptide: EGHKIFPSWY
modifications: not fully specified (N-terminus); printed as Glu-Gly-His-Lys-Ile-Phe-Pro-Ser-Trp-Tyr; also: N-terminus linked to microcapsule surface carboxyl (EDAC/NHS)
- binding interference of melanocyte and alpha-MSH, relative (capsule 2-3 = 10) (relative to capsule 2-3 = 10) [3]: 7

B4: capsule 2-2 (peptide)
peptide: EGHKIFPSWY
modifications: not fully specified (N-terminus); printed as Glu-Gly-His-Lys-Ile-Phe-Pro-Ser-Trp-Tyr; also: N-terminus amide-linked to microcapsule surface carboxyl (EDAC/NHS)
- binding interference of melanocyte and alpha-MSH, relative (capsule 2-3 = 10) (relative to capsule 2-3 = 10) [4]: 7.5

B5: capsule 3 (microcapsule to which the peptide of SEQ ID NO: 3 was linked) (peptide)
peptide: ADGSP
modifications: not fully specified (N-terminus); printed as Ala-Asp-Gly-Ser-Pro; also: N-terminus linked to microcapsule surface carboxyl (EDAC/NHS)
- binding rate [5]: 85%

B6: capsule 2-1 (peptide)
peptide: EGHKIFPSWY
modifications: not fully specified (N-terminus); printed as Glu-Gly-His-Lys-Ile-Phe-Pro-Ser-Trp-Tyr; also: N-terminus amide-linked to microcapsule surface carboxyl (EDAC/NHS)
- binding interference of melanocyte and alpha-MSH, relative (capsule 2-3 = 10) (relative to capsule 2-3 = 10) [6]: 3

B7: capsule 2 (microcapsule to which the peptide of SEQ ID NO: 2 was linked) (peptide)
peptide: EGHKIFPSWY
modifications: not fully specified (N-terminus); printed as Glu-Gly-His-Lys-Ile-Phe-Pro-Ser-Trp-Tyr; also: N-terminus amide-linked to microcapsule surface carboxyl (EDAC/NHS)
- binding affinity (binding rate) [7]: 70%
- percent reduction of the binding of melanocyte and alpha-MSH [8]: 95%
- binding interference of melanocyte and alpha-MSH, relative (capsule 2-3 = 10) (relative to capsule 2-3 = 10) [9]: 10

B8: capsule 2-4 (peptide)
peptide: EGHKIFPSWY
modifications: not fully specified (N-terminus); printed as Glu-Gly-His-Lys-Ile-Phe-Pro-Ser-Trp-Tyr; also: N-terminus linked to microcapsule surface carboxyl (EDAC/NHS)
- binding interference of melanocyte and alpha-MSH, relative (capsule 2-3 = 10) (relative to capsule 2-3 = 10) [10]: 10

B9: capsule 1 (microcapsule to which the peptide of SEQ ID NO: 1 was linked) (peptide)
peptide: AKST
modifications: not fully specified (N-terminus); printed as Ala-Lys-Ser-Thr; also: N-terminus amide-linked to microcapsule surface carboxyl (EDAC/NHS)
- fold binding affinity against the microcapsule to which the peptide was not linked [11]: 4 times
- binding rate [12]: 75%
- binding affinity to fibroblasts, relative (capsule 1-3 = 10) (relative to capsule 1-3 = 10) [13]: 10

B10: capsule 1-6 (peptide)
peptide: AKST
modifications: not fully specified (N-terminus); printed as Ala-Lys-Ser-Thr; also: N-terminus amide-linked to microcapsule surface carboxyl (EDAC/NHS)
- binding affinity to fibroblasts, relative (capsule 1-3 = 10) (relative to capsule 1-3 = 10) [14]: 3.5

B11: capsule 1-2 (peptide)
peptide: AKST
modifications: not fully specified (N-terminus); printed as Ala-Lys-Ser-Thr; also: N-terminus amide-linked to microcapsule surface carboxyl (EDAC/NHS)
- binding affinity to fibroblasts, relative (capsule 1-3 = 10) (relative to capsule 1-3 = 10) [15]: 7

B12: capsule 2-6 (peptide)
peptide: EGHKIFPSWY
modifications: not fully specified (N-terminus); printed as Glu-Gly-His-Lys-Ile-Phe-Pro-Ser-Trp-Tyr; also: N-terminus linked to microcapsule surface carboxyl (EDAC/NHS)
- binding interference of melanocyte and alpha-MSH, relative (capsule 2-3 = 10) (relative to capsule 2-3 = 10) [16]: 3

B13: capsule 1-4 (peptide)
peptide: AKST
modifications: not fully specified (N-terminus); printed as Ala-Lys-Ser-Thr; also: N-terminus amide-linked to microcapsule surface carboxyl (EDAC/NHS)
- binding affinity to fibroblasts, relative (capsule 1-3 = 10) (relative to capsule 1-3 = 10) [17]: 9.5
